± gives the standard deviation of the averaged measurements.
Key:
[1] = melting temperature (DSF); higher = more thermostable
Outline: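 Enzymes made in E. coli C41(DE3) were nickel-bead purified and cut free with SUMO protease before testing. Differential scanning fluorimetry gave each melting temperature. For this, 5 μL 5X Sypro Orange was added to 45 μL enzyme (0 to 0.3 mg/mL) in sealed PCR plates, and a Bio-Rad CFX96 read fluorescence from 25 °C over 250 cycles of 0.3 °C each, ramping at 0.3 °C/s.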

[2] = PET hydrolysis, aromatic products released after 48 h (umol product/mg enzyme); higher = more PET depolymerization activity
Outline: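 Tagless, SUMO-cleaved candidate enzymes were purified on nickel beads, and 5 μg (50 μL) was added to 3.5 mg amorphous PET film or crystalline PET powder in 450 μL buffer. Buffers were 50 mM NaCitrate (pH 4.5, 5.5), 50 mM NaPhosphate (pH 6.5, 7.5) or glycine (pH 8.5). Sealed plates were incubated 48 h at 40 or 60 °C without shaking. PET hydrolysis activity is the aromatic product in the supernatant, read by absorbance at 260 and 280 nm against buffer blanks and expressed per mg enzyme.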

[3] = purified protein yield per well (BCA); higher = higher soluble expression
Outline: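 The measured quantity is purified protein yield per well, determined with the Pierce Rapid Gold BCA kit. Anything below 25 ug (0.1 mg/mL) lies under the detection threshold. Enzymes were expressed in E. coli C41(DE3) in 2 mL autoinduction cultures with 100 µg/mL kanamycin at 37 °C for 2 h, then 18 °C for 40 h, and purified on an OT-2 robot using Ni-charged magnetic beads and SUMO protease release.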

[4] = substrate: cryPow, 40 °C, pH 4.5
[5] = substrate: cryPow, 40 °C, pH 5.5
[6] = substrate: cryPow, 40 °C, pH 6.5
[7] = substrate: cryPow, 40 °C, pH 7.5
[8] = substrate: cryPow, 60 °C, pH 4.5
[9] = substrate: cryPow, 60 °C, pH 5.5
[10] = substrate: cryPow, 60 °C, pH 6.5
[11] = substrate: cryPow, 60 °C, pH 7.5
[12] = substrate: aFilm, 40 °C, pH 4.5
[13] = substrate: aFilm, 40 °C, pH 5.5
[14] = substrate: aFilm, 40 °C, pH 6.5
[15] = substrate: aFilm, 40 °C, pH 7.5
[16] = substrate: aFilm, 60 °C, pH 4.5
[17] = substrate: aFilm, 60 °C, pH 5.5
[18] = substrate: aFilm, 60 °C, pH 6.5
[19] = substrate: aFilm, 60 °C, pH 7.5

## ADNPYQRGPDPSRTSVATETGPFANASVSVPTGYGFNGGRIYYPTDSSQGTFGAIAISPGYTALFSAELAWMGPWLASHGFVVIGIETNSRNDFDTARGTQLLAALDYLTQQSPVRDRVDPNRLAVAGHSMGGGGALSAAVRRSSLKAAVGIAPYSPSSNLANDRVPTMVFSGQADTVVTPSYAIGLYNSLPTTTESVYLEVAGADHGFMVGRSNPVMIRTMLPFVKMFIDNDTRYSQFLCPLLDSSGVVTYRSTCPLLPTTPTTPPVNPTTPPVNPTVSPTGAPGSASEIVGVQSGRCVDVPNASRTNGTRVQLYDCNRQSQQSWTYTSGRQLRVYGDMCLDAAGSGNGAAVQIYACHSQTNQQWNVNSNGTISGVQSGRCLDVWSTANGAQVQLYDCHGQTNQRFNVMPLAR [TEP092]
[1]
  melting temperature: 60.4 C
[2]; [4]
  PET hydrolysis: 5
[2]; [5]
  PET hydrolysis: 10
[2]; [6]
  PET hydrolysis: 8
[2]; [7]
  PET hydrolysis: 3
[2]; [8]
  PET hydrolysis: < 3
[2]; [9]
  PET hydrolysis: < 3
[2]; [10]
  PET hydrolysis: < 3
[2]; [11]
  PET hydrolysis: < 3
[3]
  purified protein yield per well: 154 µg

## ADNPYQRGPDPTAASIAAVTGPFATASVTVPRGNGFGGGVIYYPTDTSQGTFGGIAISPGLNGTWPGIAWLGPRLASQGFVVFGIETNNLNDSPTSRGTQLLAALDYLTGSSSVRTRVDAGRLAVAGHSMGGGGALDAALRRPSLRATIGNAPHLPSGSLANDRVPTLIYAMQNDTLVPPSRLTSLYNTVPATTERGYLEITGAGHNYIGQPSTILARTMIPWLKIFVDDDARYSQFLCPLTDRSGISQYQSSCPLITTSPTTGPTAQPTTAAPTTTPTTPPVGGPCEATHRTVNSWSGGYQGEVTVRAGSAAINGWTVSWTLGSGQTINQVWGGALTASGTAATVRNETWNGPVAAGASTTFGYIATGNAPTQPLACSAR [ESM060]
[1]
  melting temperature: 58.6 C
[2]; [12]
  PET hydrolysis: < 3
[2]; [13]
  PET hydrolysis: < 3
[2]; [14]
  PET hydrolysis: 1.5 ± 2.1
[2]; [15]
  PET hydrolysis: 8 ± 1.4
[2]; [16]
  PET hydrolysis: < 3
[2]; [17]
  PET hydrolysis: < 3
[2]; [18]
  PET hydrolysis: < 3
[2]; [19]
  PET hydrolysis: < 3
[2]; [4]
  PET hydrolysis: < 3
[2]; [5]
  PET hydrolysis: 11.5 ± 2.1
[2]; [6]
  PET hydrolysis: 24.5 ± 2.1
[2]; [7]
  PET hydrolysis: 38 ± 1.4
[2]; [8]
  PET hydrolysis: < 3
[2]; [9]
  PET hydrolysis: < 3
[2]; [10]
  PET hydrolysis: 5.5 ± 0.71
[2]; [11]
  PET hydrolysis: 12.5 ± 0.71
[3]
  purified protein yield per well: 279 µg

## ADNPYQRGPDPTAASVTAVNGPFANTSVSVPTGYGFNGGRIYYPTDTSQGTFGAIAISPGYTALFSAELAWMGPWLASHGFVVIGIETNSRNDFDTARGTQLLAALDYLTQQSPVRDRVDPNRLAVAGHSMGGGGALSAATRRPSLKAVVGIAPYSPSSNLANDRVPTMIFAGQADTVVTPSYATGLYNSLPTTTESTYLEVAGADHGFMVGRSNPVLVRTMLPFVKMFLDNDARYSQFLCPLLDNSGVVTYRSTCPLLPSTPTSPTPTTTPTSTPTPTPTVTPTTPPGSASQIVGTQSGRCVDVPNASRTNGTRVHLWDCNRQANQAWTYTANKQLQVYGTMCLDAAGTGNGAAVQIYSCHGQTNQQWNVNSNGTISSVQSGRCLDVWSTANGAQVQLYDCHGQTNQQFRLTALN [ESM130]
[1]
  melting temperature: 58 C
[2]; [4]
  PET hydrolysis: < 3
[2]; [5]
  PET hydrolysis: 6
[2]; [6]
  PET hydrolysis: 3
[2]; [7]
  PET hydrolysis: < 3
[2]; [8]
  PET hydrolysis: < 3
[2]; [9]
  PET hydrolysis: < 3
[2]; [10]
  PET hydrolysis: < 3
[2]; [11]
  PET hydrolysis: < 3
[3]
  purified protein yield per well: 138 µg

## ADNPYQRGPDPTAESVRASRGTFATTQVTVPAGNGFGGGVIYHPTDTSQGTFGAVAIVPGYTATWAAEGAWMGHWLASFGFVVIGVDTINRNDWDTARGTQLLAALDYLTQQSPVRNRVDASRAAVMGHSMGGGGAMSAALRRPSLKAAVGLAPFSPSQNLTNTRVPTMLIAGQNDGTTTPASISTLYNGIPASTESAYLEFAGAGHGFPTSNNPLMMRVVIPWLKIFVDNDTRYSQFLCPLTDRTGITQYRSTCPLTPPGAPTSPPTTTAPPTPTTSPSVTPSTSPSATPTTPAPDGACRATYRTTNSWPGGYQAEVTVTAGNSPINGWTVRWTLGSGQSISQVWNGTLTTSGSAVTVRNVSYNGSLQPGTSTTFGFIGGGTPSTPVLACVSP [ESM018]
[1]
  melting temperature: 61.3 C
[2]; [12]
  PET hydrolysis: < 3
[2]; [13]
  PET hydrolysis: < 3
[2]; [14]
  PET hydrolysis: < 3
[2]; [15]
  PET hydrolysis: < 3
[2]; [16]
  PET hydrolysis: < 3
[2]; [17]
  PET hydrolysis: < 3
[2]; [18]
  PET hydrolysis: < 3
[2]; [19]
  PET hydrolysis: < 3
[2]; [4]
  PET hydrolysis: < 3
[2]; [5]
  PET hydrolysis: 3
[2]; [6]
  PET hydrolysis: 11 ± 1.4
[2]; [7]
  PET hydrolysis: 30 ± 1.4
[2]; [8]
  PET hydrolysis: < 3
[2]; [9]
  PET hydrolysis: < 3
[2]; [10]
  PET hydrolysis: 7 ± 9.9
[2]; [11]
  PET hydrolysis: < 3
[3]
  purified protein yield per well: 530 µg

## ADNPYQRGPDPTLASVAANRGTFATAQLSVPGDGFGSGVIYYPTDTSQTFGAVAIVPGYSALFSVEEAWMGHWLASFGFVVIGIETISRSDSADARATQLLAALDYLTQRSSVRSRVDASRLSIIGHSAGGAGVLTAVLRRPTLKAAVGLAPGSPVGNYNLSSDRVPTMFISGQRDTTVSQSYLNGIYPTIPASTPSAWVELTGGDHLFPTRANTNMMRVLIPWLKIFVDNDTRYTQFLCPLMDSSGISMYRNKCPYVPTSPSPSPSTSPSPSVSPSPSPSASPSPSPSPSTSPSPQPSGACSATYRTVNSWSGGYQAEVTVTAGSSAINRWSVRWTLSSGQSISQVWNGTLSAGGSSVTVANASYNGSLPASGTTTFGFLANGAPSTPTLTCTSP [ESM034]
[1]
  melting temperature: 59.8 C
[2]; [12]
  PET hydrolysis: < 3
[2]; [13]
  PET hydrolysis: < 3
[2]; [14]
  PET hydrolysis: < 3
[2]; [15]
  PET hydrolysis: < 3
[2]; [16]
  PET hydrolysis: < 3
[2]; [17]
  PET hydrolysis: < 3
[2]; [18]
  PET hydrolysis: < 3
[2]; [19]
  PET hydrolysis: < 3
[2]; [4]
  PET hydrolysis: < 3
[2]; [5]
  PET hydrolysis: < 3
[2]; [6]
  PET hydrolysis: < 3
[2]; [7]
  PET hydrolysis: < 3
[2]; [8]
  PET hydrolysis: < 3
[2]; [9]
  PET hydrolysis: < 3
[2]; [10]
  PET hydrolysis: < 3
[2]; [11]
  PET hydrolysis: < 3
[3]
  purified protein yield per well: 392 µg

From the supplement of paper PMC12455559
